Several values for one entry are separate records, joined by “and”; a condition that tells them apart may be missing. Equal entries are not always repeated. Non-standard residues stand in square brackets, D forms with d. No end group written: not given here. PEG20K = 20 kDa polyethylene glycol, linked to pAF (e.g. via oxime linkage); Phe(4-Ac) = CC(=O)c1ccc(C[C@H](N)C(=O)O)cc1
T1: human RXFP1 (human, UniProt Q9HBX9 1-757)
T1 sequence (looked up): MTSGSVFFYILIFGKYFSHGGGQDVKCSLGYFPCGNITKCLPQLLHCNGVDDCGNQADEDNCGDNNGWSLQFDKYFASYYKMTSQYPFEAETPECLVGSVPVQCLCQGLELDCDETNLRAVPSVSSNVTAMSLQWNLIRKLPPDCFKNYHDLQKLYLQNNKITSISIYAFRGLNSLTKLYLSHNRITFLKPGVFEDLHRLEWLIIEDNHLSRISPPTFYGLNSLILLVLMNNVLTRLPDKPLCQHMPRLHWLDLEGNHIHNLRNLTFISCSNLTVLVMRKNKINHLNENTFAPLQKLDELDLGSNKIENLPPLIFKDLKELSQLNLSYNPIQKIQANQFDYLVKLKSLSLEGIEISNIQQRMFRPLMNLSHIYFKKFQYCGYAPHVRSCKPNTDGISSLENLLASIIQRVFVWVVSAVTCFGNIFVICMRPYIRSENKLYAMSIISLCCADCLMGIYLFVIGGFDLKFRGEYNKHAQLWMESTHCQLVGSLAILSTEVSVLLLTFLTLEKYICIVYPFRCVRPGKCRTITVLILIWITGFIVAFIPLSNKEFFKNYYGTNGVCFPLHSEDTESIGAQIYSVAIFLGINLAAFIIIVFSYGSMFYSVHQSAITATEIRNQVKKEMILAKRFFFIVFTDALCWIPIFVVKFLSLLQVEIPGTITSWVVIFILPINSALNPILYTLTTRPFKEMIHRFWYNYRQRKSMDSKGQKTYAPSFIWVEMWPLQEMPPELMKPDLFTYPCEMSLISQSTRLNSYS

B1: RLX-A-AV13-20KPEG (ligand)
chain 1: QLYSALANKCCHXGCTKRSLARFC
chain 2: ASWMEEVIKLCGRELVRAQIAICGMSTWS
modifications: not fully specified; para-acetylphenylalanine (pAF) at position 13 of the A chain, 20K PEGylated
B2: RLX-A-WT (human relaxin 2 with alanine at the first position of the B chain) (ligand)
chain 1: QLYSALANKCCHVGCTKRSLARFC
chain 2: ASWMEEVIKLCGRELVRAQIAICGMSTWS
modifications: not fully specified (bridges); ends and bridges not checked
B3: RLX-A-AA5-20KPEG (ligand)
chain 1: QLYSXLANKCCHVGCTKRSLARFC
chain 2: ASWMEEVIKLCGRELVRAQIAICGMSTWS
modifications: not fully specified; para-acetylphenylalanine (pAF) at position 5 of the A chain, 20K PEGylated
B4: RLX-A-BW28-20KPEG (ligand)
chain 1: QLYSALANKCCHVGCTKRSLARFC
chain 2: ASWMEEVIKLCGRELVRAQIAICGMST[Phe(4-Ac)](PEG20K)S
modifications: not fully specified (bridges); ends and bridges not checked
B5: RLX-A-BA18-20KPEG (ligand)
chain 1: QLYSALANKCCHVGCTKRSLARFC
chain 2: ASWMEEVIKLCGRELVR[Phe(4-Ac)](PEG20K)QIAICGMSTWS
modifications: not fully specified (bridges); ends and bridges not checked
B6: RLX-D-AL2-20KPEG (ligand)
chain 1: QXYSALANKCCHVGCTKRSLARFC
chain 2: DSWMEEVIKLCGRELVRAQIAICGMSTWS
modifications: not fully specified; para-acetylphenylalanine (pAF) at position 2 of the A chain, 20K PEGylated
B7: RLX-A-BE5-20KPEG (ligand)
chain 1: QLYSALANKCCHVGCTKRSLARFC
chain 2: ASWM[Phe(4-Ac)](PEG20K)EVIKLCGRELVRAQIAICGMSTWS
modifications: not fully specified (bridges); ends and bridges not checked
B8: RLX-A-BV7-20KPEG (ligand)
chain 1: QLYSALANKCCHVGCTKRSLARFC
chain 2: ASWMEE[Phe(4-Ac)](PEG20K)IKLCGRELVRAQIAICGMSTWS
modifications: not fully specified (bridges); ends and bridges not checked
B9: RLX-A-AR18-20KPEG (ligand)
chain 1: QLYSALANKCCHVGCTKXSLARFC
chain 2: ASWMEEVIKLCGRELVRAQIAICGMSTWS
modifications: not fully specified; para-acetylphenylalanine (pAF) at position 18 of the A chain, 20K PEGylated
B10: RLX-D-BE5-20KPEG (ligand)
chain 1: QLYSALANKCCHVGCTKRSLARFC
chain 2: DSWM[Phe(4-Ac)](PEG20K)EVIKLCGRELVRAQIAICGMSTWS
modifications: not fully specified (bridges); ends and bridges not checked

Columns and labels:
human RXFP1 [1] = molecular target: T1, human RXFP1; experiment: cell-based or functional assay
human RXFP1 [2] = molecular target: T1, human RXFP1; experiment: cell-based or functional assay; remark: listed apart in the source

Binder | Functional Assay Raw EC50 Values [ng/mL]; cAMP increase in THP-1 cells, 11/5/2010 (human RXFP1 [1]) | In vitro Activity Fold Loss (human RXFP1 [2]) | Functional Assay Raw EC50 Values [ng/mL]; cAMP increase in THP-1 cells, 11/4/2010 (human RXFP1 [1])
B1 | 56 ng/mL | 17 fold | –
B2 | 3.3 ng/mL and 2.6 ng/mL | – | 3.6 ng/mL
B3 | 41 ng/mL | 12 fold | –
B4 | – | 48 fold | 172 ng/mL
B5 | – | 48 fold | 172 ng/mL
B6 | 43 ng/mL | 17 fold | –
B7 | 45 ng/mL | 17 fold | –
B8 | – | 15 fold | 54 ng/mL
B9 | 68 ng/mL | 21 fold | –
B10 | 58 ng/mL | 22 fold | –

Reference: patent US20240189392A1 (AMBRX, published 2024)
